As a reminder, the Kd is the equilibrium constant for the complex coming apart. Broadly, the koff is the rate constant with which the complex falls apart. Lower therefore signals slow dissociation. One may read the kon as a measure of how fast the partners come together. A higher kon goes with fast association.

Assay [1] addresses T1, human serum albumin (human, UniProt P02768 25-609).
T1 construct: also called HSA; SA
The experiment in a line: SPR (ProteOn XPR36), target on GLC chip. The text has this:
(§1) For that, DARPin® protein #27, DARPin® protein #29, DARPin® protein #47 and DARPin® protein #48 and DARPin® protein #49, DARPin® protein #50, DARPin® protein #51, DARPin® protein #52, DARPin® protein #31, DARPin® protein #53, DARPin® protein #54, DARPin® protein #55, DARPin® protein #34, DARPin® protein #33, DARPin® protein #39 and DARPin® protein #36 were subcloned and expressed as described above into derivatives of the pQE30 (Qiagen) expression vector, containing an N-terminal His-tag, CD33, CD123 and/or CD70 binding ankyrin repeat domains, followed by a CD3 specific ankyrin repeat domain and for some constructs by a human serum albumin specific ankyrin repeat domain.
(§2) Briefly, biotinylated human CD70, CD123 and CD33 was diluted in PBST (PBS, pH 7.4 containing 0.005% Tween 20®) and coated on a GLC chip (BioRad) to a level of around 200, 460 and 450 resonance units (RU) respectively. HSA in NaOAc pH 5.0 was directly immobilized on the GLC chip to a level of 800 RU. Bio.CD70, bio. CD33 and bio. CD123 required to have Neutravidin coated first to a level of 6000 RU before the biotinylated targets could be applied. The interaction of the selected ankyrin repeat proteins and human CD70, CD123 and CD33 was then measured by injecting 300 μl running buffer (PBS, pH 7.4 containing 0.005% Tween 20®) containing serial dilutions of ankyrin repeat proteins covering a concentration range between 100 nM and 2.6 nM (100, 40, 16, 6.4 and 2.6 nM respectively) for multi-trace SPR measurements, with an association of 120 s and dissociation of 1200 s using a constant flow of 100 μl/min. The regeneration was performed using 30 μl of 4 mM Glycine pH 2. The signals (i.e. resonance unit (RU) values) of the interspots and a reference injection (i.e. injection of running buffer only) were subtracted from the RU traces obtained after injection of ankyrin repeat protein (double-referencing).

In assay [2] the target is T2, extracellular domain of human CD70 (SEQ ID NO: 89), hCD70-Fc-trimer, ACRO Biosystems (human, UniProt P32970 52-193, chemically biotinylated where the biotinylated form was used).
T2 construct: also called human CD70-Fc-trimer; Bio.CD70
T2 sequence: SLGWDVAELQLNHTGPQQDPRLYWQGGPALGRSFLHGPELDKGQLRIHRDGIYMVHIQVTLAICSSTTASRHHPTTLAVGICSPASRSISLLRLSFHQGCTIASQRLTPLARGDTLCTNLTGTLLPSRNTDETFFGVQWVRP
Briefly: SPR (ProteOn XPR36), target on GLC chip.
Description: as §1, §2

For assay [3], the target named is T3, biotinylated extracellular domain of human CD123 (SEQ ID NO: 88), Fc and Avi tagged (human, UniProt P26951 19-303, biotinylated with BirA-GST (Avi tag)).
T3 construct: also called hCD123
T3 sequence: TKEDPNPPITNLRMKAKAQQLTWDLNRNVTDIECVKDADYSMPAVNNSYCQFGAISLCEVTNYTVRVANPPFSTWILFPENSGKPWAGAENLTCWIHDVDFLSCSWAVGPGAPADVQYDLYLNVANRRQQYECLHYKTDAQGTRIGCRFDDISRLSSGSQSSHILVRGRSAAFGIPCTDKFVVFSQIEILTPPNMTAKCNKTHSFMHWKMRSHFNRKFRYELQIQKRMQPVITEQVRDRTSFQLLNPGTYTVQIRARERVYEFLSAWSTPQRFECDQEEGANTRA
The experiment in a line: SPR (ProteOn XPR36), target on GLC chip.
Description: as §1, §2

Assay [4] has as its target T4, biotinylated extracellular domain of human CD33 (SEQ ID NO: 87), Fc and Avi tagged (human, UniProt P20138 18-259, biotinylated with BirA-GST (Avi tag)).
T4 construct: also called hCD33; human target hCD33
The experiment in a line: SPR (ProteOn XPR36), target on GLC chip, DARPin as analyte.

The target of assay [5] is T1, human serum albumin. The assay is described as above.
The target of assay [6] is T2, extracellular domain of human CD70 (SEQ …). The description is as above.
Assay [7] addresses T3, biotinylated extracellular domain of …. Described as above.
The target of assay [8] is T5, human scCD3εγ (scCD3εγ_Avi-Bio) (human, biotin on the C-terminal Avi-tag (in vitro, BirA) where the biotinylated form was used).
T5 construct: Used for all SPR and HTRF results on human CD3; also called recombinant human CD3; human CD3
T5 chain: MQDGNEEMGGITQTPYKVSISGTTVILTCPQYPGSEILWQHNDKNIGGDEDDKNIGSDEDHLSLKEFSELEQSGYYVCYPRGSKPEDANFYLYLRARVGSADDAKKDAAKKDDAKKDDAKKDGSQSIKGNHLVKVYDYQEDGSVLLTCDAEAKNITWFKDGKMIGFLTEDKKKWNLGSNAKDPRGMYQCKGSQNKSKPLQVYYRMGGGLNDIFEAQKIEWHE
Briefly: SPR (ProteOn), DARPin on GLC chip, scCD3εγ as analyte. The protocol: Similarly, the binding affinities of two purified ankyrin repeat proteins on recombinant human CD3 target were analyzed as described before. Briefly, DARPin® protein #53, DARPin® protein #54 in NaOAc pH 4.5 was coated on a GLC chip (BioRad) to a level of around 790-1500 resonance units (RU). The interaction of ankyrin repeat protein and human CD3 was then measured by injecting 300 μl running buffer (PBS, pH 7.4 containing 0.005% Tween 20®) containing serial dilutions of human scCD3εγ (56.4 μM), was diluted in PBST (PBS, pH 7.4 containing 0.005% Tween 20®) and covering a concentration range between 300 nM and 19 nM for multi-trace SPR measurements, followed by a running buffer flow for at least 10 minutes at a constant flow rate of 60 μl/min (off-rate measurement).
The regeneration was performed using 30 μl of 10 mM Glycine pH 2. The signals (i.e. resonance unit (RU) values) of the interspots and a reference injection (i.e. injection of running buffer only) were subtracted from the RU traces obtained after injection of CD3 (double-referencing). Binding parameters (KD, on-rate, off-rate) against CD3 were determined by using a standard Langmuir fit model.

T4 sequence (P20138 18-259 R69G): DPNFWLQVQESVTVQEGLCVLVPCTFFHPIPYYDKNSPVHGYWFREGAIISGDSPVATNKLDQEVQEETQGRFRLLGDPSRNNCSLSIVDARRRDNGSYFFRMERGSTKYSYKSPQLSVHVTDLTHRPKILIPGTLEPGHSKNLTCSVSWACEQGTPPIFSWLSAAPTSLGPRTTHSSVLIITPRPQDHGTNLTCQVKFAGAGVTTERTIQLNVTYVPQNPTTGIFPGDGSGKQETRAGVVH
T1 sequence (P02768 25-609 limits assumed): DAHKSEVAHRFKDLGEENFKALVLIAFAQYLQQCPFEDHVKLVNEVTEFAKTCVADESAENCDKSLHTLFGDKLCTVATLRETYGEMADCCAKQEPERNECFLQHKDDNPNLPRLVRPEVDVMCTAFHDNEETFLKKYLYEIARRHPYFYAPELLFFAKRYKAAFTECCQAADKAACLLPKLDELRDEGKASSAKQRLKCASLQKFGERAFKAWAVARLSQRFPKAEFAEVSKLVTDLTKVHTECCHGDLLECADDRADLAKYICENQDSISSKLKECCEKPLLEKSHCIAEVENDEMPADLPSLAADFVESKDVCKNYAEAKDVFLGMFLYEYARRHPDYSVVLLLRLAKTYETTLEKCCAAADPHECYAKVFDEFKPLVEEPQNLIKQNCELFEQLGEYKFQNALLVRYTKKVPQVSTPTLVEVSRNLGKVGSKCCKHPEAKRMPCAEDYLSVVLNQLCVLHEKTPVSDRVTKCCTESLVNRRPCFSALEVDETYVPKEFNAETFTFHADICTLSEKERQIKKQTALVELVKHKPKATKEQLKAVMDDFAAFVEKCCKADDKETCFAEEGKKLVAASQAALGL

B1: DARPin® protein #39 (designed binder)
chain: DLGVKLLRAAVHGQLDEVRILLKAGADVNAKDTDGETPLHYAAQFGHLEIVEVLLKAGADVNAKDAYGATPLHWAAWHGHLEIVEVLLKAGADVNAQDVSGATPADLAAKVGHQDIAEVLQKAA
notes: CD33-specific ankyrin repeat domain; not shown: N-terminal His-tag
Consider B1, for which the binding result (with human serum albumin [1]; in assay [2]; in assay [3]) was “no binding (tested: 100 nM (highest concentration))” in each case. Moreover, the dissociation constant (Kd) in assay [4] is 24 nM.

B2: DARPin® protein #54 (designed binder)
chain: MRGSHHHHHHDLGKKLLEAARAGQDDEVRELLKAGADVNAKDYFSHTPLHLAARNGHLKIVEVLLKAGADVNAKDFAGKTPLHLAAADGHLEIVEVLLKAGADVNAQDIFGKTPADIAADAGHEDIAEVLQKAAGSPTPTPTTPTPTPTTPTPTPTGSDLGKKLLEAARAGQDDEVRELLKAGADVNAKDYFSHTPLHLAARNGHLKIVEVLLKAGADVNAKDFAGKTPLHLAAADGHLEIVEVLLKAGADVNAQDIFGKTPADIAADAGHEDIAEVLQKAAGSPTPTPTTPTPTPTTPTPTPTGSDLGYKLLQAAYDGQLDEVRILLKAGADVNAKDSRGQTPLHYAASIGHLEIVEVLLKAGADVNAKDDHGWTPLHLAAWSGHLEIVEVLLKAGADVNAQDQEGTTPADLAAVQGHQDIAEVLQKAAGSPTPTPTTPTPTPTTPTPTPTGSDLGKKLLEAALEGQLDEVRELLKAGADVNAKDQEGYTPLHLAAALGHLEIVEVLLKAGADVNAKDSIGRTPLHLAAYKGHLEIVEVLLKAGADVNAQDLLGETPADLAAEQGHQDIAEVLQKAAGSPTPTPTTPTPTPTTPTPTPTGSDLGVKLLRAAVHGQLDEVRILLKAGADVNAKDTDGETPLHYAAQFGHLEIVEVLLKAGADVNAKDAYGATPLHWAAWHGHLEIVEVLLKAGADVNAQDVSGATPADLAAKVGHQDIAEVLQKAAGSPTPTPTTPTPTPTTPTPTPTGSDLGQKLLEAAWAGQDDEVRELLKAGADVNAKNSRGWTPLHTAAQTGHLEIFEVLLKAGADVNAKDDKGVTPLHLAAALGHLEIVEVLLKAGADVNAQDSWGTTPADLAAKYGHEDIAEVLQKAA
notes: HSA-HSA-CD70-CD123-CD33-CD3
On to B2, for which the Kd in the assay with human serum albumin [5] was determined as 1.2 nM; in assay [4] it was 8.2 nM; in assay [6], 0.61 nM; in assay [7], 33 nM; in assay [8], 129 nM. Besides, the koff in assay [8] turned out to be 0.0067 s⁻¹. This molecule also gave a kon in assay [8] of 52000 M⁻¹ s⁻¹.

B3: DARPin® protein #53 (designed binder)
chain: MRGSHHHHHHDLGKKLLEAARAGQDDEVRELLKAGADVNAKDYFSHTPLHLAARNGHLKIVEVLLKAGADVNAKDFAGKTPLHLAAADGHLEIVEVLLKAGADVNAQDIFGKTPADIAADAGHEDIAEVLQKAAGSPTPTPTTPTPTPTTPTPTPTGSDLGYKLLQAAYDGQLDEVRILLKAGADVNAKDSRGQTPLHYAASIGHLEIVEVLLKAGADVNAKDDHGWTPLHLAAWSGHLEIVEVLLKAGADVNAQDQEGTTPADLAAVQGHQDIAEVLQKAAGSPTPTPTTPTPTPTTPTPTPTGSDLGKKLLEAALEGQLDEVRELLKAGADVNAKDQEGYTPLHLAAALGHLEIVEVLLKAGADVNAKDSIGRTPLHLAAYKGHLEIVEVLLKAGADVNAQDLLGETPADLAAEQGHQDIAEVLQKAAGSPTPTPTTPTPTPTTPTPTPTGSDLGVKLLRAAVHGQLDEVRILLKAGADVNAKDTDGETPLHYAAQFGHLEIVEVLLKAGADVNAKDAYGATPLHWAAWHGHLEIVEVLLKAGADVNAQDVSGATPADLAAKVGHQDIAEVLQKAAGSPTPTPTTPTPTPTTPTPTPTGSDLGQKLLEAAWAGQDDEVRELLKAGADVNAKNSRGWTPLHTAAQTGHLEIFEVLLKAGADVNAKDDKGVTPLHLAAALGHLEIVEVLLKAGADVNAQDSWGTTPADLAAKYGHEDIAEVLQKAA
notes: HSA-CD70-CD123-CD33-CD3
On to B3, for which the equilibrium dissociation constant (Kd) with human serum albumin [5] was found to be 24 nM; in assay [4], 12 nM; in assay [6], 0.7 nM; in assay [7], 8 nM; in assay [8], 139 nM. Moreover, the off-rate (koff) in assay [8] came out at 0.0065 s⁻¹. The molecule further returned an on-rate (kon) in assay [8] of 48000 M⁻¹ s⁻¹.

The values are drawn from patent US20240254229A1 (Molecular Partners, published 2024).
